Target: CHD7 full length WT (UniProt Q9P2D1)
Test: single-molecule PIFE/smFRET

UniProt Q9P2D1, sequence (Q9P2D1 whole entry): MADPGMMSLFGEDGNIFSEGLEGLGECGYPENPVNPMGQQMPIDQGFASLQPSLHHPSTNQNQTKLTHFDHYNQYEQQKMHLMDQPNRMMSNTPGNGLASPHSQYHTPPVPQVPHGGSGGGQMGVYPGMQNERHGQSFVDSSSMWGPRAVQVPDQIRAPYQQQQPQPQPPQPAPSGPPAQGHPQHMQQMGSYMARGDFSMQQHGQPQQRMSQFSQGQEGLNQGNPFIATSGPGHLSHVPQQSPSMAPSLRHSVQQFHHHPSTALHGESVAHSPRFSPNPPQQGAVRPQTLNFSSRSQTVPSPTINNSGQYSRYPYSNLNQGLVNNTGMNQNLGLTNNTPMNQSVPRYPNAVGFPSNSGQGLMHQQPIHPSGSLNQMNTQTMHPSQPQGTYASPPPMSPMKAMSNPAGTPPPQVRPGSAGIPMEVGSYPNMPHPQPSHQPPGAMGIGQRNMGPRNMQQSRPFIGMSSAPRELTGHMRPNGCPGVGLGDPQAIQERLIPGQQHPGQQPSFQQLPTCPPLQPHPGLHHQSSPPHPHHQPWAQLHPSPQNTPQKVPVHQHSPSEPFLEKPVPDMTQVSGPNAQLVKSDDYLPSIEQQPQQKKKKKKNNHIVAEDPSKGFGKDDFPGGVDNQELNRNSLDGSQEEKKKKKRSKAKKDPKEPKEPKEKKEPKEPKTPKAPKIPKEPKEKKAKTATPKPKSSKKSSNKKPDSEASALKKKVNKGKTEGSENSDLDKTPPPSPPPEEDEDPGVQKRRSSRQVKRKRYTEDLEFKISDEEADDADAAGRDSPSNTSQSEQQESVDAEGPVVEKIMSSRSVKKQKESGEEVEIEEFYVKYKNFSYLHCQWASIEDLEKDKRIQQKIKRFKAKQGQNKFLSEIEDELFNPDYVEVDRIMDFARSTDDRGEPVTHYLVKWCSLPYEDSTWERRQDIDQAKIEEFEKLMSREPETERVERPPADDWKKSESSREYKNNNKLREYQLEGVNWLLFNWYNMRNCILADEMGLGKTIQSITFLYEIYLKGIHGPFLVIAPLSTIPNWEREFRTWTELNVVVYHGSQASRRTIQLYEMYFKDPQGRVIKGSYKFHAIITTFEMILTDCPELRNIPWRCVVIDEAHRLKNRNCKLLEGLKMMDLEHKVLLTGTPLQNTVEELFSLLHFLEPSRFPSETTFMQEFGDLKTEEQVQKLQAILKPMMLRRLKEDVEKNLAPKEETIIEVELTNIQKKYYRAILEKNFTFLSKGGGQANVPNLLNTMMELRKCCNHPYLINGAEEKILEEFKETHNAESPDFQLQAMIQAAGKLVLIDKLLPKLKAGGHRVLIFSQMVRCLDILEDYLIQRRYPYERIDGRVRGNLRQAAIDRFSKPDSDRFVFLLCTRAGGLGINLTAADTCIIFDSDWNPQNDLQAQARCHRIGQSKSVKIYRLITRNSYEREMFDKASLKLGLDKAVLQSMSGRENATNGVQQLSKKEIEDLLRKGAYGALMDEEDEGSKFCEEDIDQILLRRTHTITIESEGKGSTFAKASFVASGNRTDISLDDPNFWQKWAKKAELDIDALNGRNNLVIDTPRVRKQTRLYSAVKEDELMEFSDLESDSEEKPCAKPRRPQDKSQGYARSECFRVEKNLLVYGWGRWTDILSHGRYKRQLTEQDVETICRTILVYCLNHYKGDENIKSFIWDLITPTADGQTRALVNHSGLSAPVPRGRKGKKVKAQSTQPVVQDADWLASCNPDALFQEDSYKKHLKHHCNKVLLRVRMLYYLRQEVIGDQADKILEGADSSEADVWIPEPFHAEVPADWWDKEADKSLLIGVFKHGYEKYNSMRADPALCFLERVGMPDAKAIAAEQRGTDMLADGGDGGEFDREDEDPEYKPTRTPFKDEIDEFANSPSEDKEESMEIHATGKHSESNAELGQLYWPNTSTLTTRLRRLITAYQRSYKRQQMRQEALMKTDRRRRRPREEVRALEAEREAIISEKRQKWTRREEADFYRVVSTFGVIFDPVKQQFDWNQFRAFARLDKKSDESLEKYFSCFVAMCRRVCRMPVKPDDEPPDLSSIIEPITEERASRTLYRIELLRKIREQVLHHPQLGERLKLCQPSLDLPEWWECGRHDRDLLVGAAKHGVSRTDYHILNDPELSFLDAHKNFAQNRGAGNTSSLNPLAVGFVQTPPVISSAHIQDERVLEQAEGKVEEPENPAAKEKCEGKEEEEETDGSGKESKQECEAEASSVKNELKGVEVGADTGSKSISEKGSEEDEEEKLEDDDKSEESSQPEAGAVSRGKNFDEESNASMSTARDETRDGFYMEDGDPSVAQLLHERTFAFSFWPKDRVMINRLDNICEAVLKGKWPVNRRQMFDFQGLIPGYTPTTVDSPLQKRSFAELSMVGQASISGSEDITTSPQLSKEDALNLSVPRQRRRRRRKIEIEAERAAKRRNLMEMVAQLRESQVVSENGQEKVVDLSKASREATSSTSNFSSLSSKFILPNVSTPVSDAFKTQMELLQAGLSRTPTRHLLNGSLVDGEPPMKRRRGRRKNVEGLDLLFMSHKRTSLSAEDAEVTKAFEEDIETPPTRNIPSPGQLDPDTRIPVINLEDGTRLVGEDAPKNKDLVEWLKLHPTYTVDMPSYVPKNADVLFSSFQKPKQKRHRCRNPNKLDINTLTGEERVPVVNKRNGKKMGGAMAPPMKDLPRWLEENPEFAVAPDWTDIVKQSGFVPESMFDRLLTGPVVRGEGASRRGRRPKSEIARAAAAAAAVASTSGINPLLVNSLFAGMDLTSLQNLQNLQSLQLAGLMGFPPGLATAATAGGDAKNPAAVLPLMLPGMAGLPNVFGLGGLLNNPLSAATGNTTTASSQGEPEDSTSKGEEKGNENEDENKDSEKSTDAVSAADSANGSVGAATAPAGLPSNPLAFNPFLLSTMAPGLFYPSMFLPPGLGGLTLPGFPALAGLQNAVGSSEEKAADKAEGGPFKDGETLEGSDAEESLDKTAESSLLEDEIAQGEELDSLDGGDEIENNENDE

## GCCCTGGAGAATCCCGGTCTGCAGGCCGCTCAATTGGTCGTAGACAGCTCTAGCACCGCTTAAACGCACGTACGCGCTGTCCCCCGCGTTTTAACCGCCAAGGGGATTACTCCCTAGTCTCCAGGCACGTGTCAGATATATACATCCTGTGCATGTATTGAACAGCGACCTTGCCGGTGCCAGTCGGATAGTGTTCCGAGCTCCCACTCTAGAGGATCCCCGGGTACC (double strand) [smFRET 601 nucleosome, 3 bp exit linker, 78 bp entry linker]
  binding signal (% of nucleosomes with PIFE): 76.5

— paper doi:10.1101/2020.11.19.389429
